B1: Phospholipid-transporting ATPase DRS2 (Saccharomyces cerevisiae), P39524 (parent)
chain: MNDDRETPPKRKPGEDDTLFDIDFLDDTTSHSGSRSKVTNSHANANYIPPSHVLPEETIDLDADDDNIENDVHENLFMSNNHDDQTSWNANRFDSDAYQPQSLRAVKPPGLFARFGNGLKNAFTFKRKKGPESFEMNHYNAVTNNELDDNYLDSRNKFNIKILFNRYILRKNVGDAEGNGEPRVIHINDSLANSSFGYSDNHISTTKYNFATFLPKFLFQEFSKYANLFFLCTSAIQQVPHVSPTNRYTTIGTLLVVLIVSAMKECIEDIKRANSDKELNNSTAEIFSEAHDDFVEKRWIDIRVGDIIRVKSEEPIPADTIILSSSEPEGLCYIETANLDGETNLKIKQSRVETAKFIDVKTLKNMNGKVVSEQPNSSLYTYEGTMTLNDRQIPLSPDQMILRGATLRNTAWIFGLVIFTGHETKLLRNATATPIKRTAVEKIINRQIIALFTVLIVLILISSIGNVIMSTADAKHLSYLYLEGTNKAGLFFKDFLTFWILFSNLVPISLFVTVELIKYYQAFMIGSDLDLYYEKTDTPTVVRTSSLVEELGQIEYIFSDKTGTLTRNIMEFKSCSIAGHCYIDKIPEDKTATVEDGIEVGYRKFDDLKKKLNDPSDEDSPIINDFLTLLATCHTVIPEFQSDGSIKYQAASPDEGALVQGGADLGYKFIIRKPNSVTVLLEETGEEKEYQLLNICEFNSTRKRMSAIFRFPDGSIKLFCKGADTVILERLDDEANQYVEATMRHLEDYASEGLRTLCLAMRDISEGEYEEWNSIYNEAATTLDNRAEKLDEAANLIEKNLILIGATAIEDKLQDGVPETIHTLQEAGIKIWVLTGDRQETAINIGMSCRLLSEDMNLLIINEETRDDTERNLLEKINALNEHQLSTHDMNTLALVIDGKSLGFALEPELEDYLLTVAKLCKAVICCRVSPLQKALVVKMVKRKSSSLLLAIGDGANDVSMIQAAHVGVGISGMEGMQAARSADIAVGQFKFLKKLLLVHGSWSYQRISVAILYSFYKNTALYMTQFWYVFANAFSGQSIMESWTMSFYNLFFTVWPPFVIGVFDQFVSSRLLERYPQLYKLGQKGQFFSVYIFWGWIINGFFHSAIVFIGTILIYRYGFALNMHGELADHWSWGVTVYTTSVIIVLGKAALVTNQWTKFTLIAIPGSLLFWLIFFPIYASIFPHANISREYYGVVKHTYGSGVFWLTLIVLPIFALVRDFLWKYYKRMYEPETYHVIQEMQKYNISDSRPHVQQFQNAIRKVRQVQRMKKQRGFAFSQAEEGGQEKIVRMYDTTQKRGKYGELQDASANPFNDNNGLGSNDFESAEPFIENPFADGNQNSNRFSSSRDDISFDI
partner: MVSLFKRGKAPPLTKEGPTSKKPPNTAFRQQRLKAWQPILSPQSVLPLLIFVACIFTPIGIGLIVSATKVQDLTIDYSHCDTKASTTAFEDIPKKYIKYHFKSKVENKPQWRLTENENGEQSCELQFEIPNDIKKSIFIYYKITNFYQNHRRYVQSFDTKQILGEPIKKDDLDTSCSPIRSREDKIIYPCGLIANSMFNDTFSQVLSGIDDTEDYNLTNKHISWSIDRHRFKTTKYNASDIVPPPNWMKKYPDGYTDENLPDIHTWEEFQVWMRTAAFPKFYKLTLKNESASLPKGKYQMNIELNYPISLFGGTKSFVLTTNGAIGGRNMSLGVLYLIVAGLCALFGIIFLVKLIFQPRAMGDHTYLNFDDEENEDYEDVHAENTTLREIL

In the experiment the parent is B1. As to conditions: with cdc50_yeast CDC50, P25656.
On to H1236A, for which the “effect of a mutation on the interaction” value was “with no effect”. Y1235F: the “effect of a mutation on the interaction” value is “with no effect”. The entry for Y1235A is “with no effect”.

The record behind these values is IntAct's records for PubMed 31243363.
